This note sets out measurements from PMC11225919.

For the data set, the target named is T1, Fur (6xHis-tagged) (Salmonella enterica serovar Infantis 119944) (UniProt A0A4Z0KGQ7).
T1 sequence: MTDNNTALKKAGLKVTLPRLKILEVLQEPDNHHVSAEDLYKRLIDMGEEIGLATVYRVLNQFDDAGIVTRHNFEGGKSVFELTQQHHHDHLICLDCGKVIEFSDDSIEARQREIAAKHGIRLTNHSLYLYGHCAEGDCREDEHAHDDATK
Kind of data set: EMSA.

Consider “CCGGGGTCGCGCCCCCATAAACGCCTCCCTGACAGAGGCCCGGATACCCCATCCGGGCCTCTGTTCTTTCCGCCTGTTACCAACCCGAAACGGGCATAAATAAACCCGTTTCGGGTAGCATACAATTGTTAATAATTATTATTCTCATATGAGCAATGCTTTTCGGTAAGACGTGCCATCAGGAGGAAGA (double strand) [irp2 promoter (pESI)]”, for which the binding entry is “binds”.
